Measured values taken from IntAct's records for PubMed 23376921.

B1: Transmembrane protein 59 (Homo sapiens), Q9BXS4 (parent)
chain: MAAPKGSLWVRTQLGLPPLLLLTMALAGGSGTASAEAFDSVLGDTASCHRACQLTYPLHTYPKEEELYACQRGCRLFSICQFVDDGIDLNRTKLECESACTEAYSQSDEQYACHLGCQNQLPFAELRQEQLMSLMPKMHLLFPLTLVRSFWSDMMDSAQSFITSSWTFYLQADDGKIVIFQSKPEIQYAPHLEQEPTNLRESSLSKMSYLQMRNSQAHRNFLEDGESDGFLRCLSLNSGWILTTTLVLSVMVLLWICCATVATAVEQYVPSEKLSIYGDLEFMNEQKLNRYPASSLVVVRSKTEDHEEAGPLPTKVNLAHSEI
B2: Transmembrane protein 59 (Homo sapiens), Q9BXS4 (parent)
chain: B1 chain
partner: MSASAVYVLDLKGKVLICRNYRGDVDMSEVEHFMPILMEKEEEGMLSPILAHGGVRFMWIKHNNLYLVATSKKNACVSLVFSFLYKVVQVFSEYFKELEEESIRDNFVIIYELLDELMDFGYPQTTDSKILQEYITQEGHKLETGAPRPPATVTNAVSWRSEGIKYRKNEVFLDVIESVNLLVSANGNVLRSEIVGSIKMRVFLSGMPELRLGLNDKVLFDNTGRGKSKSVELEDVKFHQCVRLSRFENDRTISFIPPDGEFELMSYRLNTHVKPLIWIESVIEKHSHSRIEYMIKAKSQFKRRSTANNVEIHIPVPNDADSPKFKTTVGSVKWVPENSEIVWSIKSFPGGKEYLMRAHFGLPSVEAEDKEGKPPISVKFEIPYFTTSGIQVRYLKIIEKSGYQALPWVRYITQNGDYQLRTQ

Variants of: B1
Conditions: with ATG16L1, Q676U5
Sequence of ATG16L1, Q676U5 (Q676U5 whole entry): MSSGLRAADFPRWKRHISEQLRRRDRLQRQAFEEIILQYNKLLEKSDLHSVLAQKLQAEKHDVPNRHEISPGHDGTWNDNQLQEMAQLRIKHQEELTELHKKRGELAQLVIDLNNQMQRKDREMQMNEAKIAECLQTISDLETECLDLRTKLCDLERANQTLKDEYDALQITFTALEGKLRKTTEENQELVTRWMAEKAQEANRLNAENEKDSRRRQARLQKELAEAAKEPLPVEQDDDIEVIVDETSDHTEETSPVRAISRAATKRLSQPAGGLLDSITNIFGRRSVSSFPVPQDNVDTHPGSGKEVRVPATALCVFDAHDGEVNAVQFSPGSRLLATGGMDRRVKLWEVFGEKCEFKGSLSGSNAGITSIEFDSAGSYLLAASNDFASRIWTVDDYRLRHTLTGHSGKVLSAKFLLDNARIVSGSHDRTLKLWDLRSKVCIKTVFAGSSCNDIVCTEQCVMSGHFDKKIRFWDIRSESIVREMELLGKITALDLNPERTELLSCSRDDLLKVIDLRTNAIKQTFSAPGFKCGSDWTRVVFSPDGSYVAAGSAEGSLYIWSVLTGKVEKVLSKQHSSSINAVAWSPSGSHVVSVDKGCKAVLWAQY

effect of a mutation on the interaction | Variant
disrupting interaction | Y277A;L280A

Variants of: B1
Conditions: with ATG16L1, Q676U5
Remark: another data set of the same source

effect of a mutation on the interaction | Variant
disrupting interaction | Y268A;E272A;Y277A;L280A

Variants of: B1
Conditions: with ATG16L1, Q676U5
Remark: another data set of the same source

effect of a mutation on the interaction | Variant
disrupting interaction | Y268A;E272A;Y277A;L280A

Variants of: B1
Conditions: with ATG16L1, Q676U5
Remark: another data set of the same source

effect of a mutation on the interaction | Variant
disrupting interaction | Y268A;E272A;Y277A;L280A

Variants of: B1
Conditions: with ATG16L1, Q676U5
Remark: another data set of the same source

effect of a mutation on the interaction | Variant
disrupting interaction | Y268A;E272A;Y277A;L280A

Variants of: B1
Conditions: with ATG16L1, Q676U5
Remark: another data set of the same source

effect of a mutation on the interaction | Variant
disrupting interaction | Y268A;E272A;Y277A;L280A

Variants of: B1
Conditions: with ap2m1_human AP2M1, Q96CW1
Sequence of ap2m1_human AP2M1, Q96CW1 (Q96CW1 whole entry): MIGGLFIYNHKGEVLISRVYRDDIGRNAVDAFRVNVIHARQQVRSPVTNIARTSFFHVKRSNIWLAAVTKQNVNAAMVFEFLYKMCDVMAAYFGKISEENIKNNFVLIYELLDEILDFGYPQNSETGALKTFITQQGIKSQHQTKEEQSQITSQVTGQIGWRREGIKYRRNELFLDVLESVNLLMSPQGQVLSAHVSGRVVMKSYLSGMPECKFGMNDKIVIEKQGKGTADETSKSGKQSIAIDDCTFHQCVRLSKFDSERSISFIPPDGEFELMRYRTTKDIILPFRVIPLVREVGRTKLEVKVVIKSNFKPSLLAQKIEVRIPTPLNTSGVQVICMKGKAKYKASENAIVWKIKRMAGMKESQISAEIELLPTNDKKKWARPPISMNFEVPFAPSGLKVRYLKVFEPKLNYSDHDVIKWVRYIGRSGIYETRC

effect of a mutation on the interaction | Variant
disrupting interaction | Y268A;E272A;Y277A;L280A

Variants of: B1
Conditions: with mlp3a_human MAP1LC3A

effect of a mutation on the interaction | Variant
disrupting interaction | Y268A;E272A;Y277A;L280A

Variants of: B2
Conditions: with ap1m1_human AP1M1, Q9BXS5

effect of a mutation on the interaction | Variant
disrupting interaction | Y268A;E272A;Y277A;L280A
